The target in the test is Influenza B hemagglutinin (HA) from B/Florida/4/2006 (Influenza B virus, strain …, UniProt P03463 16-583).

B1: mAb35490 (antibody, human IgG1, kappa, V domains shown)
VH: EVQLVESGGDLVQPGGSLRLSCAASGFTVSSNYMSWVRQVPGKGLDWVSVTYSGGNTYYADSVKGRFTISRHNSKNTLYLQMNSLRIEDTAVYYCATVPSFHGMDVWGQGTTVTVSS
VL: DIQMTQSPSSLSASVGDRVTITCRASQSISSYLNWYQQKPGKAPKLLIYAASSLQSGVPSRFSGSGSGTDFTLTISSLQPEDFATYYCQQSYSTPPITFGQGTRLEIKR
Usually EC50 stands for the concentration needed to bring the measured effect to its halfway point. Lower therefore signals an effect from little substance. B1 came in with an EC50 of 0.761 nM. In other words, the sub-nanomolar range.

The values above are taken from patent US20240083983A1 (Regeneron, published 2024).
